Results on two molecules are retold here after article PMC10883266, “TTLL12 is required for primary ciliary axoneme formation in polarized epithelial cells” (EMBO Reports, 2023).

For test [1], the target named is recombinant 6His-TTLL12 (human) (UniProt Q14166). The test can be described thus: pull-down; 10 μg (0.18 μM) untagged porcine brain tubulin alone or with 10 μg 6His-TTLL12 in 20 mM HEPES pH 7.4, 150 mM KCl, overnight at 4 °C to prevent polymerization; Ni beads; washes with 300 mM KCl, 0.1% Triton X-100; Coomassie blue staining.
The next test deals with T1, recombinant GST-Rab19 (UniProt A4D1S5 1-217).
T1 construct: small GTPase Rab19; loaded with GDP or GMP-PNP before the assay; Loaded with GDP or with GMP-PNP (non-hydrolyzable GTP analog); also called GST-Rab19 (GDP); GST-Rab19 (GMP-PNP); source: E. coli BL21 Codon Plus, purified as previously described (Jewett et al, 2021); not shown: GST, N-terminal, kept
T1 sequence (looked up): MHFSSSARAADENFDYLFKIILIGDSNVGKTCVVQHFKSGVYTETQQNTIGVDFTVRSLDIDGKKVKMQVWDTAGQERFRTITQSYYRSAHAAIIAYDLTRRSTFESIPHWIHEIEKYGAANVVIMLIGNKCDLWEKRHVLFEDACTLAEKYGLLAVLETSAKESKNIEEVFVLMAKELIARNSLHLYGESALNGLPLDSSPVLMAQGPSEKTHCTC
The test can be described thus: pull-down; 10 μg GST-Rab19 loaded with GDP or GMP-PNP + 10 μg 6His-TTLL12 in 20 mM HEPES pH 7.4, 150 mM NaCl, 1% BSA, 1 h room temperature; glutathione beads; washes with 300 mM NaCl, 0.1% Triton X-100; Coomassie blue staining. Particulars: both partners purified.

Take “untagged purified porcine brain tubulin (α/β-tubulin heterodimer) (from UniProt P02554 1-445) (complex)”: in test [1], the fold increase in tubulin co-precipitation with Ni beads over tubulin alone was 3 fold.

B1: recombinant 6His-TTLL12 (natural protein, human, UniProt Q14166 1-644, looked up)
chain: MEAERGPERRPAERSSPGQTPEEGAQALAEFAALHGPALRASGVPERYWGRLLHKLEHEVFDAGEVFGIMQVEEVEEEEDEAAREVRKQQPNPGNELCYKVIVTRESGLQAAHPNSIFLIDHAWTCRVEHARQQLQQVPGLLHRMANLMGIEFHGELPSTEAVALVLEEMWKFNQTYQLAHGTAEEKMPVWYIMDEFGSRIQHADVPSFATAPFFYMPQQVAYTLLWPLRDLDTGEEVTRDFAYGETDPLIRKCMLLPWAPTDMLDLSSCTPEPPAEHYQAILEENKEKLPLDINPVVHPHGHIFKVYTDVQQVASSLTHPRFTLTQSEADADILFNFSHFKDYRKLSQERPGVLLNQFPCENLLTVKDCLASIARRAGGPEGPPWLPRTFNLRTELPQFVSYFQQRERWGEDNHWICKPWNLARSLDTHVTKSLHSIIRHRESTPKVVSKYIESPVLFLREDVGKVKFDIRYIVLLRSVRPLRLFVYDVFWLRFSNRAFALNDLDDYEKHFTVMNYDPDVVLKQVHCEEFIPEFEKQYPEFPWTDVQAEIFRAFTELFQVACAKPPPLGLCDYPSSRAMYAVDLMLKWDNGPDGRRVMQPQILEVNFNPDCERACRYHPTFFNDVFSTLFLDQPGGCHVTCLV
notes: Tubulin Tyrosine Ligase-Like 12 (TTLL12), human cDNA (pLVX304-hTTLL12); the form rests on the printed cloning primers; also called Tubulin Tyrosine Ligase-Like 12; source: Sf9 cells (baculovirus, pFastBac HTA), purified (nickel beads, dialysed into PBS with 1 mM DTT); not shown: 6His, …
For B1, the “fold increase in TTLL12 binding over a GST-only control” value with recombinant GST-Rab19 is around 5 fold.
